How the values were obtained:
[1] = target: T1, ZDHHC17 (Homo sapiens, UniProt Q8IUH5); experiment: ex vivo kinase assay of ZDHHC17-activated MAP2K4 with JNK2 substrate (western blot); supported by co-IP disruption in U118MG cells and ZDHHC17 mutants; no direct binding measurement; type: biochemical
T1 construct: purified ZDHHC17 (50 ng) with recombinant MAP2K4; with MAP2K4

[2] = target: Myc-tagged ZDHHC17 ANK (1-7); experiment: co-immunoprecipitation, quantified immunoblot; conditions: HEK293 cell lysates; parent: est. 1.0; read off a plot

T1 sequence (Q8IUH5 whole entry): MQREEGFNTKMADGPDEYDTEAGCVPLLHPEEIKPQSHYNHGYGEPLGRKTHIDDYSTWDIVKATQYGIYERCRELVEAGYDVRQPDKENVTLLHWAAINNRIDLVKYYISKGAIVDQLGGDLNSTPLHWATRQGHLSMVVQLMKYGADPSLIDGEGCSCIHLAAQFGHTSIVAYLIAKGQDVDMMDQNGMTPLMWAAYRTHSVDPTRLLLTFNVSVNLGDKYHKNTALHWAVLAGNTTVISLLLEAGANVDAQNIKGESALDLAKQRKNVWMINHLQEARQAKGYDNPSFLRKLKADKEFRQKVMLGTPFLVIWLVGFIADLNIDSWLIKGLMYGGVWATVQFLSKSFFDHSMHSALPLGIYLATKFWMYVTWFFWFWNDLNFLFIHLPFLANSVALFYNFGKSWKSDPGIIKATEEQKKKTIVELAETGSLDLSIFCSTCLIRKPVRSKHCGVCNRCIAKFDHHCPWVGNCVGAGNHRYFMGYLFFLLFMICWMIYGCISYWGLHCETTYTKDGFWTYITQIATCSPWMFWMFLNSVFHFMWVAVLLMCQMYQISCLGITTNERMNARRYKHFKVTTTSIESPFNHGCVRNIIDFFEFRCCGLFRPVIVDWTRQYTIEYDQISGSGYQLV
T1 sequence (P45985 2-399 partner): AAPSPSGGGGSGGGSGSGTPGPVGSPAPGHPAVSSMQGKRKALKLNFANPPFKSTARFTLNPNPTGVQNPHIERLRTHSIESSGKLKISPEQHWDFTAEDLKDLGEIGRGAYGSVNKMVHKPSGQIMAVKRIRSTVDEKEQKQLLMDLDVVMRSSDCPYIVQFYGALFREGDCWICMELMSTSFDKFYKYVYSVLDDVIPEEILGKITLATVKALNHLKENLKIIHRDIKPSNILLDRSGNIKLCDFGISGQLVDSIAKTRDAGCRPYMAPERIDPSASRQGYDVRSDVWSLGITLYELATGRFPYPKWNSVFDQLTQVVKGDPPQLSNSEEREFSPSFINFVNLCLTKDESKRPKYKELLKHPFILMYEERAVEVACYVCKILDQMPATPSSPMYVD

Compound: O=c1c(-c2ccc(O)cc2)coc2cc(O)cc(O)c12 [genistein]
- IC50 [1]: 800 nM

Compound: FLAG-tagged MAP2K4 protein kinase c (PKc) domain fragment W95G
- ratio to parent [2]: 0.47

Compound: FLAG-tagged MAP2K4 protein kinase c (PKc) domain fragment N222G
- ratio to parent [2]: 0.35

Compound: FLAG-tagged MAP2K4 protein kinase c (PKc) domain fragment S80G
- ratio to parent [2]: 0.83

Compound: FLAG-tagged MAP2K4 protein kinase c (PKc) domain fragment M153G
- ratio to parent [2]: 0.5

Compound: FLAG-tagged MAP2K4 protein kinase c (PKc) domain fragment E221G
- ratio to parent [2]: 0.85

Compound: FLAG-tagged MAP2K4 protein kinase c (PKc) domain fragment R154G
- ratio to parent [2]: 0.73

From PMC6956818, “Activation of JNK and p38 MAPK Mediated by ZDHHC17 Drives Glioblastoma Multiforme Development and Malignant Progression” (Theranostics, 2020)
